Reference: article doi:10.1101/2022.03.30.486377 (bioRxiv, 2022)

Experiments:
[1] = target: SARS-CoV-2 (2019-nCoV) S protein (S1+S2 ECD) (SARS-CoV-2 (2019-nCoV), UniProt P0DTC2); assay: ELISA
[2] = target: MERS-CoV S protein (S1+S2 ECD) (MERS-CoV; strain  in paper, …, UniProt K0BRG7); assay: ELISA
[3] = target: HCoV-OC43 S protein (S1+S2 ECD) (Human coronavirus OC43 (HCoV-OC43)., UniProt P36334); assay: ELISA
[4] = target: HCoV-HKU1 (isolate N5) S protein (S1+S2 ECD) (Human coronavirus HKU1 (isolate N5) …, UniProt Q0ZME7); assay: ELISA
Sequence of HCoV-HKU1 (isolate N5) S protein (S1+S2 ECD) (Q0ZME7 13-1295): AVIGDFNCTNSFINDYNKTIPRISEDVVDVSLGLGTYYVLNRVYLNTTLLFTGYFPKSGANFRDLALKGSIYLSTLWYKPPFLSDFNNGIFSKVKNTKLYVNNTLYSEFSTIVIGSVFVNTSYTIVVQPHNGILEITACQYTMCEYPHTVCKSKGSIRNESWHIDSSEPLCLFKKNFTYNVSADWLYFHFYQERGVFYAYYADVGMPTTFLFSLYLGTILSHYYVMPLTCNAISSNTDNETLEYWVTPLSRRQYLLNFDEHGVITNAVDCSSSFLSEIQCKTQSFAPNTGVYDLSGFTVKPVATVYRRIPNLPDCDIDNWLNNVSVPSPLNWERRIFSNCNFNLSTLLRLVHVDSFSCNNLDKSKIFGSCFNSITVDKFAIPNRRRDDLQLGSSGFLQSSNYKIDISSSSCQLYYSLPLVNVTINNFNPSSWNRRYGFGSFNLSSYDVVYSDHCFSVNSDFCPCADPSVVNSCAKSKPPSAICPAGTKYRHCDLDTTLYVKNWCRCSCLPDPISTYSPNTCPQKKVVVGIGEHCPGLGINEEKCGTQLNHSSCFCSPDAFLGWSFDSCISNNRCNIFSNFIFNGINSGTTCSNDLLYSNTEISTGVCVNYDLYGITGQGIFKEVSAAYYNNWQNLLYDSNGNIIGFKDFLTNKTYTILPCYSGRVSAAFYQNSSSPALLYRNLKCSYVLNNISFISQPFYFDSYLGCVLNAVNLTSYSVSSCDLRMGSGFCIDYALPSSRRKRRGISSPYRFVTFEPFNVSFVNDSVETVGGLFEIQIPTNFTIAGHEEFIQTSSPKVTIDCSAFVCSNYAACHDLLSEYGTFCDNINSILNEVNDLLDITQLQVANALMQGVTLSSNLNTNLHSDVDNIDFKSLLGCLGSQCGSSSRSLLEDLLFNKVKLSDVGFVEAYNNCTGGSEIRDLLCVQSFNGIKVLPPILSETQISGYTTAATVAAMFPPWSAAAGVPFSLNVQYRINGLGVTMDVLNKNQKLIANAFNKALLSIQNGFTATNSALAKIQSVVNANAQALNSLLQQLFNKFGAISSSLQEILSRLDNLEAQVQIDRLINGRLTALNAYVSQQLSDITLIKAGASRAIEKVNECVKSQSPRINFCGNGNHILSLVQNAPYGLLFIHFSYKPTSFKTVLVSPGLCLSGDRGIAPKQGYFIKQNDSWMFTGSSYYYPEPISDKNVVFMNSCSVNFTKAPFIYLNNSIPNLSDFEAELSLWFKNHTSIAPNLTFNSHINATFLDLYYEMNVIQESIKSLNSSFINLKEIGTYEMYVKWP

[5] = target: HCoV-NL63 S protein (S1+S2 ECD) (HCoV-NL63, strain not named (stand-in: …, UniProt Q6Q1S2)); assay: ELISA
[6] = target: HCoV-229E S protein (S1+S2 ECD) (HCoV-229E, strain not named (stand-in: …, UniProt P15423)); assay: ELISA
[7] = target: T1, SARS-CoV-2 fusion peptide K811[…]825 (SARS-CoV-2); assay: ELISA
T1 chain: KPSKRSFIEDLLFNK

[8] = target: SARS-CoV-2 Wuhan-Hu-1 S on 293T cells (SARS-CoV-2 Wuhan-Hu-1, UniProt P0DTC2); assay: flow cytometry on cells
[9] = target: NL63 S on 293T cells (Human coronavirus NL63 (HCoV-NL63)., UniProt Q6Q1S2); assay: flow cytometry on cells
[10] = target: 229E S on 293T cells (Human coronavirus 229E (HCoV-229E)., UniProt P15423); assay: flow cytometry on cells
Sequence of 229E S on 293T cells (P15423 16-1173): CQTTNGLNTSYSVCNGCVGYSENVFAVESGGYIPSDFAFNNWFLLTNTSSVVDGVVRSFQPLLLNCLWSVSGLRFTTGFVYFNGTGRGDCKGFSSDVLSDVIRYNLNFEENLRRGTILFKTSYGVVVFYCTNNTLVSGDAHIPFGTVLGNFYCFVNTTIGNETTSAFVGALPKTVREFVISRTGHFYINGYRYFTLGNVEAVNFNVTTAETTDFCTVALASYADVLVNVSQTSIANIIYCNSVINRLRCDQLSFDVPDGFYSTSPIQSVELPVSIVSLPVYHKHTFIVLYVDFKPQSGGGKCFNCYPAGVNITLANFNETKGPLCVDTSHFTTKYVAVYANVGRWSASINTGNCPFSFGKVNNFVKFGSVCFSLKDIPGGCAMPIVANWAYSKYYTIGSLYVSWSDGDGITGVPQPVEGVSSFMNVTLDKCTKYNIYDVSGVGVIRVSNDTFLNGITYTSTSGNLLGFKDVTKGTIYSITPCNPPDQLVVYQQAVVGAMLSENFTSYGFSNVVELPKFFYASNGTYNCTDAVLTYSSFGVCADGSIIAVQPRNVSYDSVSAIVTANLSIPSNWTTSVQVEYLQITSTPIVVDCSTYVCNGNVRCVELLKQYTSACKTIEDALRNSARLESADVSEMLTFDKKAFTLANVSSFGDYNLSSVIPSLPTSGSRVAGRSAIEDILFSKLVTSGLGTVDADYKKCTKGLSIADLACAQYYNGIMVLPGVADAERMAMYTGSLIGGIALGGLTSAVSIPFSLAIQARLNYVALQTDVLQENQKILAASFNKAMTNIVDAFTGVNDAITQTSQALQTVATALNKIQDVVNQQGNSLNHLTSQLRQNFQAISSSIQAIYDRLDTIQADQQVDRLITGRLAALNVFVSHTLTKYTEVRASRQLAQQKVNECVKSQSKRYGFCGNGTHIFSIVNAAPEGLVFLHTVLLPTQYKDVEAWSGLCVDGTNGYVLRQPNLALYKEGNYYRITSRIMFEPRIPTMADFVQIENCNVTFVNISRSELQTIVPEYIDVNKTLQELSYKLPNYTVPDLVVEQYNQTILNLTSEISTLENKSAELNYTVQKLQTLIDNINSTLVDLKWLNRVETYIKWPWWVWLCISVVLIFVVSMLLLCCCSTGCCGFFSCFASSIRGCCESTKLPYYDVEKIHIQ

[11] = target: T1, SARS-CoV-2 fusion peptide K811[…]825; assay: crystal structure

Measured: binding result

Sequence of MERS-CoV S protein (S1+S2 ECD) (K9N5Q8 18-1296): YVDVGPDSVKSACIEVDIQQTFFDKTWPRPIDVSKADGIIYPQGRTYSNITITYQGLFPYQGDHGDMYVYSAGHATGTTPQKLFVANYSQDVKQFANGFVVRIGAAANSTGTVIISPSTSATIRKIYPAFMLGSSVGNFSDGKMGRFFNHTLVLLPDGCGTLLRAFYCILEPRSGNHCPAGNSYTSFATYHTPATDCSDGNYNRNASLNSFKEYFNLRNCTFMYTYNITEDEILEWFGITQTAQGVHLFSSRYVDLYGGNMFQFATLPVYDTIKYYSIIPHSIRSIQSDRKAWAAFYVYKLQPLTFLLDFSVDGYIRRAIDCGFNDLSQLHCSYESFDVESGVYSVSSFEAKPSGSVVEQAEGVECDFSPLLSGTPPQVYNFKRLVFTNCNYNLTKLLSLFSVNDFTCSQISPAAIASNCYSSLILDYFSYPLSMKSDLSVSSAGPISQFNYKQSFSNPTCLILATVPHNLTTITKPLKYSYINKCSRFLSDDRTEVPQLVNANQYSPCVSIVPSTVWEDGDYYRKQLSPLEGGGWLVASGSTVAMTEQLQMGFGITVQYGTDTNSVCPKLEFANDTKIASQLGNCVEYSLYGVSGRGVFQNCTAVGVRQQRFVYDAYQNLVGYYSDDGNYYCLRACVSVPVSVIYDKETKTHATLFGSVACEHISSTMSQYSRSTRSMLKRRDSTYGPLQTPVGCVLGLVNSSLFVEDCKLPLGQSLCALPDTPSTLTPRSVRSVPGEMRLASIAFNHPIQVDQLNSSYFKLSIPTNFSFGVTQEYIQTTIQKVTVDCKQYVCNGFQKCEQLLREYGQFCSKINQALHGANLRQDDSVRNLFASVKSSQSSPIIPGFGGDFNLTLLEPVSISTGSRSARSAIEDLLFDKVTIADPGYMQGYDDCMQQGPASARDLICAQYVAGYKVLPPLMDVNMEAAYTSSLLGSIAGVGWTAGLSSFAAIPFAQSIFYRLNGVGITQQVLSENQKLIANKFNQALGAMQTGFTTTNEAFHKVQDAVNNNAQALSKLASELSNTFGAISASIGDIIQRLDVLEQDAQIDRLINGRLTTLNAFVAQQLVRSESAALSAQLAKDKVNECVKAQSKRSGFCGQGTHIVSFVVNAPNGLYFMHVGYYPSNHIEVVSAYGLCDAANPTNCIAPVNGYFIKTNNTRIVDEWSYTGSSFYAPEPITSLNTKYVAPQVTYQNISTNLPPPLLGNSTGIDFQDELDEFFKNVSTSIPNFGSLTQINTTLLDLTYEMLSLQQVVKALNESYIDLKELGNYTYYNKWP
Sequence of HCoV-OC43 S protein (S1+S2 ECD) (P36334 14-1297): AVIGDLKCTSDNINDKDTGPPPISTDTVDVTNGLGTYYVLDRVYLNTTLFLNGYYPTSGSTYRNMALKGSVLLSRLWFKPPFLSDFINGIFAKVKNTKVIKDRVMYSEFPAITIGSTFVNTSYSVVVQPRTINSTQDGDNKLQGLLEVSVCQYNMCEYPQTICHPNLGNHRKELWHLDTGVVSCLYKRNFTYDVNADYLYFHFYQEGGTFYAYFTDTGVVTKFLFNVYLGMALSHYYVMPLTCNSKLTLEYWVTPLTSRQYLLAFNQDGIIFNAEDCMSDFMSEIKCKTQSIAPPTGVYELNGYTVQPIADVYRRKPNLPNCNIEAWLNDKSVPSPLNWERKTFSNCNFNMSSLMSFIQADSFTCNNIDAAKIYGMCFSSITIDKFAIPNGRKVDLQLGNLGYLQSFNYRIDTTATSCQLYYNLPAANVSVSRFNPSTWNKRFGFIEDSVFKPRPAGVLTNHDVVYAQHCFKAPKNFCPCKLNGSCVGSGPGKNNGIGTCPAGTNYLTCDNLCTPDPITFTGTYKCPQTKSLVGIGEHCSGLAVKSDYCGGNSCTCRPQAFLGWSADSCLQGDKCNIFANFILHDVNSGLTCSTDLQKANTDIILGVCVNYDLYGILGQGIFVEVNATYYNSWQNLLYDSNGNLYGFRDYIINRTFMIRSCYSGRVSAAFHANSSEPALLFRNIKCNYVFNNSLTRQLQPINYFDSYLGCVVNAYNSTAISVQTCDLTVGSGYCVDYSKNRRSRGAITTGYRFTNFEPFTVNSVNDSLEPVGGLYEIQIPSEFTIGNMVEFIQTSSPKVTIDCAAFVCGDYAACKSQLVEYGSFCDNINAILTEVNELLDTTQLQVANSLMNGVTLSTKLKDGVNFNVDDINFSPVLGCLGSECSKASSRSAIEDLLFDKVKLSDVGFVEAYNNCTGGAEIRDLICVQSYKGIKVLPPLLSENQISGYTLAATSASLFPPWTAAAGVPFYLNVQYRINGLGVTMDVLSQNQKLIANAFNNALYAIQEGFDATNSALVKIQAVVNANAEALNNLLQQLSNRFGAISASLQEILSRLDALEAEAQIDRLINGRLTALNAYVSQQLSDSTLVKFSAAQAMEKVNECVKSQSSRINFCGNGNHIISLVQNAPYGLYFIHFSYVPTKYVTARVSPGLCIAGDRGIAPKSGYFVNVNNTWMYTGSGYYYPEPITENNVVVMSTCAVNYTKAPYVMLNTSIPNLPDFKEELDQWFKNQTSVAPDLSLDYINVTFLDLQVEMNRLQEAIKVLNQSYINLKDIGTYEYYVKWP

B1: C13C9 mAb (antibody, V domains shown)
VH: EVQLVQSGPEVKKPGTSARVSCKASGFTSKNTALQWVRQARGQPLEWMGWIDISNYITNYAQKFRGRLTITWDLSASMAYMELSSLRSEDTAVYYCAAVGKDDDVLTGGNKYFDHWGQGTLVTVSS
VL: SYELTQPPSVSVSPGQTARITCSGDALPKKYAYWYQQKSGQAPVLVIHEDDKRPSGIPGRFSASSSGTTATLTISGAQVEDEADYYCYSTDTNDNHAFGSGTKLTVL
not listed: [11]
binds: all other assays above

B2: C13C9 Fab (Fab, V domains shown)
VH: EVQLVQSGPEVKKPGTSARVSCKASGFTSKNTALQWVRQARGQPLEWMGWIDISNYITNYAQKFRGRLTITWDLSASMAYMELSSLRSEDTAVYYCAAVGKDDDVLTGGNKYFDHWGQGTLVTVSS
VL: SYELTQPPSVSVSPGQTARITCSGDALPKKYAYWYQQKSGQAPVLVIHEDDKRPSGIPGRFSASSSGTTATLTISGAQVEDEADYYCYSTDTNDNHAFGSGTKLTVL
binds: [11]

B3: C13B8 mAb (antibody, V domains shown)
VH: QVQLQESGPGLVQPSQTLTLTCTVSGDSISNEDYHWTWIRQHPGKGLEWMGYLQYSGNTNYNPSLKSRMTISVDTSKNQFSLRLNSVTAADTAVYFCATSIVLTGMSNKIQPFDYWGQGTLVTVSS
VL: SYELTQPPSVSVSPGQMARITCSGEALPKKYAYWYQQKGGQFPVLVIYKDTERPSGIPERFSGSSSGTIVTLTISGVQPEDEADYYCLSADTSGTWVFGGGTKLTVL
not listed: [11]
binds: all other assays above

B4: C13B8 Fab (Fab, V domains shown)
VH: QVQLQESGPGLVQPSQTLTLTCTVSGDSISNEDYHWTWIRQHPGKGLEWMGYLQYSGNTNYNPSLKSRMTISVDTSKNQFSLRLNSVTAADTAVYFCATSIVLTGMSNKIQPFDYWGQGTLVTVSS
VL: SYELTQPPSVSVSPGQMARITCSGEALPKKYAYWYQQKGGQFPVLVIYKDTERPSGIPERFSGSSSGTIVTLTISGVQPEDEADYYCLSADTSGTWVFGGGTKLTVL
binds: [11]

B5: C77G12 mAb (antibody, V domains shown)
VH: EVQLVESGGGVVQPGRSLRISCAVSGFTFGSYAMHWVRQAPGKGLEWVGVMSSDGHNEYYADSVKGRFTISRDNSRNKLYLEMNNLRVDDTAVFYCARGSDYVDDSPPLHYWGQGTLVTVSS
VL: DIQLTQSPSSLSASIGDRVTITCRASQDIANKLAWFQQAPGKAPKSLIYAASRLQSGVPSQFSGSGSGTDFTLTIESLQAGDFATYFCQQYDSFPFTFGPGTKVDVK
not listed: [11]
binds: all other assays above

B6: C77G12 Fab (Fab, V domains shown)
VH: EVQLVESGGGVVQPGRSLRISCAVSGFTFGSYAMHWVRQAPGKGLEWVGVMSSDGHNEYYADSVKGRFTISRDNSRNKLYLEMNNLRVDDTAVFYCARGSDYVDDSPPLHYWGQGTLVTVSS
VL: DIQLTQSPSSLSASIGDRVTITCRASQDIANKLAWFQQAPGKAPKSLIYAASRLQSGVPSQFSGSGSGTDFTLTIESLQAGDFATYFCQQYDSFPFTFGPGTKVDVK
binds: [11]

B7: VP12E7 mAb (antibody, V domains shown)
VH: QVQLVQSGGGVVQPGESLRLSCSGSGFTFNNYIMHWVRQAPGQGLDYVSGIGSDGRNTNYGDSVKGRFTISRDNSKDTLYLQMTSLRAEDTAFYYCVKGLDVLRFLDLSTPSGERLDAFDIWGQGTMVTVSS
VL: DIVMTQSPSFLSASVGDRVTITCRASQGISNYLAWYQQKPGKAPHLLIYAASTLQSGVPSRFSGSGSGTEFTLTISSLQPEDFATYYCQQLNSYPLFTFGPGTKVDIE
not listed: [11]
binds: all other assays above

B8: VP12E7 Fab (Fab, V domains shown)
VH: QVQLVQSGGGVVQPGESLRLSCSGSGFTFNNYIMHWVRQAPGQGLDYVSGIGSDGRNTNYGDSVKGRFTISRDNSKDTLYLQMTSLRAEDTAFYYCVKGLDVLRFLDLSTPSGERLDAFDIWGQGTMVTVSS
VL: DIVMTQSPSFLSASVGDRVTITCRASQGISNYLAWYQQKPGKAPHLLIYAASTLQSGVPSRFSGSGSGTEFTLTISSLQPEDFATYYCQQLNSYPLFTFGPGTKVDIE
binds: [11]

B9: VN01H1 mAb (antibody, V domains shown)
VH: EVQLVESGGGLVLPGGSLRLSCSASGFTFSDFSMHWVRQSPGKGLEYVSAITSSGSSTYYPDSVKGRFTISRDNSKNTLYLQMGSLRVEDTAVYWCVKNSDVFRFPHLYFDVWGRGTLVTVSS
VL: not shown
not listed: [11]
binds: all other assays above

B10: VN01H1 Fab (Fab, V domains shown)
VH: EVQLVESGGGLVLPGGSLRLSCSASGFTFSDFSMHWVRQSPGKGLEYVSAITSSGSSTYYPDSVKGRFTISRDNSKNTLYLQMGSLRVEDTAVYWCVKNSDVFRFPHLYFDVWGRGTLVTVSS
VL: not shown
binds: [11]
